Experimental data reported in publication PMC7820290 (Nature Communications, 2020).

Key:
Experiment in all cases: […]; 5 mM HEPES pH 7.5, 80 mM KCl, 20 °C; […]
Conditions in all cases: both partners purified
[1] = biological target: T1, SARS-CoV-2 N protein residues 247–419 (SARS-CoV-2, UniProt P0DTC9 247-419)
T1 construct: also called N^247–419

[2] = biological target: T2, SARS-CoV-2 N protein residues 175–364 (SARS-CoV-2, UniProt P0DTC9 175-364)
T2 construct: also called N^175–364

[3] = biological target: T3, SARS-CoV-2 N protein residues 175–419 (SARS-CoV-2, UniProt P0DTC9 175-419)
T3 construct: also called N^175–419

[4] = biological target: T4, SARS-CoV-2 nucleocapsid (N) protein, full length (419 aa) (SARS-CoV-2, UniProt P0DTC9 1-419)
T4 construct: also called N^1–419; N^FL

Measured: binding result

B1: soluble C-terminal domain of SARS-CoV-2 membrane (M) protein (aa 104–222 of 222) fused to GFP (domain or fragment)
chain: ARTRSMWSFNPETNILLNVPLHGTILTRPLLESELVIGAVILRGHLRIAGHHLGRCDIKDLPKEITVATSRTLSYYKLGASQRVAGDSGFAAYSRYRIGNYKLNTDHSSSSDNIALLVQ
notes: also called GFP-M^104–222
binds: all assays above
